Here are results for two molecules from paper PMC12609080, “Substrate recognition by human separase” (Science Advances, 2025).

What all share (assay): fluorescence polarisation; FlAsH-EDT2-labelled SCC1 fragment as probe, inactive separase added; 25 mM Hepes (pH 8.0), 100 mM NaCl, bovine serum albumin (0.1 mg/ml), 0.01% NP-40; room temperature (25°C); One Site-Total nonlinear fit
A general note: Fluorescence polarisation rises when a labelled molecule tumbles more slowly, as on binding a larger partner.

The target of test [1] is phosphorylated SCC1 site 1 (100 to 320) (human) (UniProt O60216).
Chain of phosphorylated SCC1 site 1 (100 to 320) (human) (O60216 100-320): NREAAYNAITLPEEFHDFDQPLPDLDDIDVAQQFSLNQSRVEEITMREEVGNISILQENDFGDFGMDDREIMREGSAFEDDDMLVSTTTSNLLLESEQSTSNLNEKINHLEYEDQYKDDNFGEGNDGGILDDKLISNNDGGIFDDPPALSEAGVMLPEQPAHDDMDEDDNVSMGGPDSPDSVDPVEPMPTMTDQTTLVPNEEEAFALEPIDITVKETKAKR
The target of test [2] is MBP-SCC1^100–320 with C-terminal tetracysteine motif, unphosphorylated (human) (UniProt O60216).
Chain of MBP-SCC1^100–320 with C-terminal tetracysteine motif, unphosphorylated (human) (O60216 100-320): as above
Test [3] concerns the target T1, inactive apo-separase (separase^C2029S) (human, UniProt Q14674 1-2120, C2029S).
T1 construct: human separase (2120 amino acids), amino acids 1 to 2120, catalytic cysteine replaced with serine; Gene-optimised synthetic cDNA in the pF1 vector; also called apo-separase^C2029S; source: Sf9 (baculovirus), purified (Strep-Tactin, heparin, Superose 6)
The following applies: both partners purified.

T1 sequence (Q14674 whole entry C2029S, the tested form may be a part): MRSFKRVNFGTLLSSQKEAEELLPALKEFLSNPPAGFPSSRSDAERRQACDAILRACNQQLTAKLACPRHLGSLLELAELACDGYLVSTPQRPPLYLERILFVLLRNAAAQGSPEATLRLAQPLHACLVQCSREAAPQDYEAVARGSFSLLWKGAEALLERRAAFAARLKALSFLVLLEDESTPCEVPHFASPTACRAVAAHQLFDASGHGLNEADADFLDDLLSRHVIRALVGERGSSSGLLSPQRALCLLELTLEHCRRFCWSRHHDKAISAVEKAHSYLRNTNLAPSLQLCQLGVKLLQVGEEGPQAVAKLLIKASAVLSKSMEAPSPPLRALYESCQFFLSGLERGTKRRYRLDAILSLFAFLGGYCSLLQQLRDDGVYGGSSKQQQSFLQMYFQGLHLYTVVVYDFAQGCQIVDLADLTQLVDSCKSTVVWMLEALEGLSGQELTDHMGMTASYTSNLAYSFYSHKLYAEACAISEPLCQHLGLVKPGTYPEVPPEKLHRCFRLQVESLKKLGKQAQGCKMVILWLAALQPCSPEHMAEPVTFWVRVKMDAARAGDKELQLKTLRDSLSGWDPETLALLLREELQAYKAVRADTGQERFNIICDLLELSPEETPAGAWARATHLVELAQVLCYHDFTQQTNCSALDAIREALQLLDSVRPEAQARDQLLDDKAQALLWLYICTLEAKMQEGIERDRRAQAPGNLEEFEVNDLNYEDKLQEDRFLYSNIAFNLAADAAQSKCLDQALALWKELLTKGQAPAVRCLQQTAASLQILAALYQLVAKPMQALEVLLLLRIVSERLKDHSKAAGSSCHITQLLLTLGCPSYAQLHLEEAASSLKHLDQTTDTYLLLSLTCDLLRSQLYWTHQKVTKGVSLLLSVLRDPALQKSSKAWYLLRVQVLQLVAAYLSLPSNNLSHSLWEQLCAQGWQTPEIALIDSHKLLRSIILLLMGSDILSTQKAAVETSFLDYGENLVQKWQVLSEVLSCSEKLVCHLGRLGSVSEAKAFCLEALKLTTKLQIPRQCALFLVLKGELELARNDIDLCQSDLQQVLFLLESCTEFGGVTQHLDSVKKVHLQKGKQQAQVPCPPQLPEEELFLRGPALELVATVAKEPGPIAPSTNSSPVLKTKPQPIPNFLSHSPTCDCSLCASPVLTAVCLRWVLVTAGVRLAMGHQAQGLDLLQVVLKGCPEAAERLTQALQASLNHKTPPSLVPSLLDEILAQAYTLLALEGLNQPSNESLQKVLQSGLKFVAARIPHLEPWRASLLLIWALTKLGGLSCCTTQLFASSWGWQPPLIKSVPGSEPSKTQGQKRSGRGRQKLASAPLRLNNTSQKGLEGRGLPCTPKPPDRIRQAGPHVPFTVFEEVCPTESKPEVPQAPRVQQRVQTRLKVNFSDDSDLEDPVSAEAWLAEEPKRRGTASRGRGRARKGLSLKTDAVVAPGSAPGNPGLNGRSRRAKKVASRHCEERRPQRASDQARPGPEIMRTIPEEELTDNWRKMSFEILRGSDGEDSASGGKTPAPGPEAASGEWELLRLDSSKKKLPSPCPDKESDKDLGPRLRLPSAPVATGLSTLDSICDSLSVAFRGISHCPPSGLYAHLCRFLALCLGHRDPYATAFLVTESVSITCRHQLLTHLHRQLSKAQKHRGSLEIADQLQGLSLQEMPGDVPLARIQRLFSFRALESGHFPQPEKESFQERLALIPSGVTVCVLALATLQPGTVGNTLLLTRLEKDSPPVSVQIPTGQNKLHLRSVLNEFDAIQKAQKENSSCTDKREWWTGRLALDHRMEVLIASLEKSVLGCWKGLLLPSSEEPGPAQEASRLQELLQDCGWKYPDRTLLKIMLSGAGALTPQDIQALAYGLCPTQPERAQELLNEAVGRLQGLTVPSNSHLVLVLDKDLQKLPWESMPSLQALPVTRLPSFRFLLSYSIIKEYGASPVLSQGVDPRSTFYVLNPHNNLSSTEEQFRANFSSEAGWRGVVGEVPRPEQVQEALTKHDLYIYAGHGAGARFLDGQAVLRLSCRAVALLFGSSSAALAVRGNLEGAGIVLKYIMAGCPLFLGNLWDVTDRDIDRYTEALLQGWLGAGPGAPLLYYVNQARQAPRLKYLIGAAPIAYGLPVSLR

“inactive apo-separase (separase^C2029S), Q14674 1-2120”: in test [1], the fold lower Kd than unphosphorylated SCC1 100-320 came out at 2 fold. The molecule also gave a fold lower Kd than the SCC1 350-550 construct in test [2] of 3 fold.

B1: MBP-SCC1^350–550 with C-terminal tetracysteine motif, unphosphorylated (domain or fragment, human, UniProt O60216 350-550, looked up)
chain: TLDLAPPTKKLMMWKETGGVEKLFSLPAQPLWNNRLLKLFTRCLTPLVPEDLRKRRKGGEADNLDEFLKEFENPEVPREDQQQQHQQRDVIDEPIIEEPSRLQESVMEASRTNIDESAMPPPPPQGVKRKAGQIDPEPVMPPQQVEQMEIPPVELPPEEPPNICQLIPELELLPEKEKEKEKEKEDDEEEEDEDASGGDQD
modifications: FlAsH-EDT2 fluorescent dye on the C-terminal tetracysteine motif
notes: human SCC1/RAD21, amino acids 350 to 550 (holds cleavage site 2, R427); pETM41 vector; also called SCC1 site 2 (amino acids 350 to 550); source: E. coli BL21, purified (HiTrap MBP, Superdex 200); not shown: 6xHis-MBP, N-terminal, kept
As to B1, in test [3], the binding result is recorded as “binds”.
